Experimental data published in article PMC4631838, “Molecular architecture of the yeast Mediator complex” (eLife, 2015).

How the values were obtained:
[1] = target: T1, Med15 (Gal11), Mediator Tail module subunit (S. cerevisiae, UniProt P19659 1-1081); test: cross-linking; BS3 (unlabeled, or 50:50 with 2H12-labeled BS3) on the purified native holoenzyme; 150 mM NaPO4, 150 mM KOAc, pH 7.5, 5% glycerol, 2 mM DTT; procedure A 2.7 mM reagent 120 min on ice; trypsin digest, LC-MS/MS, Protein Prospector; details: both partners purified
T1 construct: Med15 (Gal11), S. cerevisiae, endogenous; source: endogenous, S. cerevisiae CB010 double-tagged strain; within the purified native holoenzyme
T1 sequence (looked up): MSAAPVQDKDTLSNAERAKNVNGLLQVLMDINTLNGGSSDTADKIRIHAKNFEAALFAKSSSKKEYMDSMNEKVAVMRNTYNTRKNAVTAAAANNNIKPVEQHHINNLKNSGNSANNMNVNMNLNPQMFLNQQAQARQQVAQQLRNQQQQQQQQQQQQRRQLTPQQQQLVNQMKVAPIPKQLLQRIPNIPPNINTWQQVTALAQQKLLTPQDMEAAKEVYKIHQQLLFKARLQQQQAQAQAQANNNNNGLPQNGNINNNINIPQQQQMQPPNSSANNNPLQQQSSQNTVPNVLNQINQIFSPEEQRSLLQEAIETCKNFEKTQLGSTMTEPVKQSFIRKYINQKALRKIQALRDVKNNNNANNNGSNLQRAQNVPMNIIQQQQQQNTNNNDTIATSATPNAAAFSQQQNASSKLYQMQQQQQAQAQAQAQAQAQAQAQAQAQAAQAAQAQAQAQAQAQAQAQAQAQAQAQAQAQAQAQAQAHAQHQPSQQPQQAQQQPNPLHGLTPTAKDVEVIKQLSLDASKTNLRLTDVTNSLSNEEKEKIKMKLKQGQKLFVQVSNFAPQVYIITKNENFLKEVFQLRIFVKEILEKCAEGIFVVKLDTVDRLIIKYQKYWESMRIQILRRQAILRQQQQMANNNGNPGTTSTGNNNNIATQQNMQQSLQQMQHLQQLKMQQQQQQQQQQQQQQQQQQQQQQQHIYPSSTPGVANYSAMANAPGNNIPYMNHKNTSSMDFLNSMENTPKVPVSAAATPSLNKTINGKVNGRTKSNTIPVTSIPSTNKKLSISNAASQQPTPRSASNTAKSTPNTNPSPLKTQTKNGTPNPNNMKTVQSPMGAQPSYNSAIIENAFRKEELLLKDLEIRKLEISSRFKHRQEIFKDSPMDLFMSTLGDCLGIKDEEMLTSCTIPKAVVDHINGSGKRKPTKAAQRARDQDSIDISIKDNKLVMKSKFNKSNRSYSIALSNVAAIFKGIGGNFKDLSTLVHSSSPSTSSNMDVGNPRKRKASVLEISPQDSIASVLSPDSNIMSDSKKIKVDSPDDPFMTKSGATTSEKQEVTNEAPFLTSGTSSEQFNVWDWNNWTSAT

[2] = target: T2, Med5 (Nut1), Mediator Tail module subunit (S. cerevisiae, UniProt P53114 1-1132); test: as above; details: both partners purified
T2 construct: Med5 (Nut1), S. cerevisiae, endogenous; source: endogenous, S. cerevisiae CB010 double-tagged strain; within the purified native holoenzyme
T2 sequence (looked up): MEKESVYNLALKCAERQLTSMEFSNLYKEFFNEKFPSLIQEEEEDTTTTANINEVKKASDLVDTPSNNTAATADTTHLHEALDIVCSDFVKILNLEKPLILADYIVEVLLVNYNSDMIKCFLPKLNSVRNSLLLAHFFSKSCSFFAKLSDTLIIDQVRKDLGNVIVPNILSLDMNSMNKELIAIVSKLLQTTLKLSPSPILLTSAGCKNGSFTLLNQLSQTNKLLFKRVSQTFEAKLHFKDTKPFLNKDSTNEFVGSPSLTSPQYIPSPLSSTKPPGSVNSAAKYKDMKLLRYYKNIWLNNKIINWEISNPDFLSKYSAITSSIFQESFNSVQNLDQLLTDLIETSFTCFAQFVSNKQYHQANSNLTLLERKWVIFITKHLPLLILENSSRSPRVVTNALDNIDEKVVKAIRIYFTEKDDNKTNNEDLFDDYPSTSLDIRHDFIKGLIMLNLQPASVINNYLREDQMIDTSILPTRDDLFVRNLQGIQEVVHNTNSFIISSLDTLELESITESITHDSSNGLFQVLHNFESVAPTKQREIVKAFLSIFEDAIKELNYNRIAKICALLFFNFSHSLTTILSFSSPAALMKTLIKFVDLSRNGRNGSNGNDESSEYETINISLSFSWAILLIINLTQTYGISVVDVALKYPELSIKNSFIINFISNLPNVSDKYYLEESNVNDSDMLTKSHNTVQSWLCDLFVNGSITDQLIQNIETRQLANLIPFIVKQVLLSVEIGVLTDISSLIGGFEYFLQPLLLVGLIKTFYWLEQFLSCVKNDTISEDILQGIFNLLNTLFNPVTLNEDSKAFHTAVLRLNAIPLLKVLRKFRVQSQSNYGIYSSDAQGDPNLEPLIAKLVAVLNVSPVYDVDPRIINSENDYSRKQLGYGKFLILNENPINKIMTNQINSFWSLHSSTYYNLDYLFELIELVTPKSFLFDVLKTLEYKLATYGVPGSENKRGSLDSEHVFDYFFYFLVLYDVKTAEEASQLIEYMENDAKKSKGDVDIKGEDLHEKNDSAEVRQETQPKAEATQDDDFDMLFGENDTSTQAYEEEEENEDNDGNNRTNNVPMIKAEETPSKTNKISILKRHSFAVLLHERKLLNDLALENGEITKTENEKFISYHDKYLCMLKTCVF

binding result [1]: binds
binding result [2]: binds
B1: Med16 (Sin4), Mediator Tail module subunit (natural protein, S. cerevisiae, UniProt P32259 1-974, looked up)
chain: MMLGEHLMSWSKTGIIAYSDSQSSNANICLTFLESINGINWRFHTPQKYVLHPQLHEVQYQESSSTLSTHSTTTSVNGSTTAGVGSTPNFGGNSNKSPPQFFYNISSIHWNNWFSLPGDMLAVCDELGNMTMLITGQRPDRATTYEKLTMVFQDNVYKIYNHVMPLKPVDKLKPMNIERKQTRKEYNTSILEFRWLTSSKSVIVSQFCAFDSSSNTYRSRAQQVPPYGVYHPPFIKYACLAIRKNGQIDFWYQFSNSKDHKKITLQLLDTSNQRFKDLQWLEFARITPMNDDQCMLITTYSKLSKNISFYKLHVNWNLNATKPNVLNDPSLKIQFILSTTLDPTDDEGHVLKLENLHVVSKSSIEKDPSPEILVLYNVCDTSKSLVKRYRLAPTQLSAEYLVILKPDLNIDRNNSTNQIFQSRRYNLRRHSDIVLDKKVTLITSEMFDAFVSFYFEDGTIESYNQNDWKLETERLISQSQLGKFKNIIASPLSAGFNYGKLPLPPSVEWMKVSPSMCGVIVKQYNKKWPQFYAAVQKNYADPEKDSINATALAFGYVKSLHKQISAEDLTIAAKTHILRISFLDRKRAKEFITTLLKSLYSFFNISPDAPKEIMDKIITSRPLQKIMLLQLELGSCFSQENIEEMARVILYLKNVLFAFNGVARNFHFAIEQISNNSNQQQNPKLFQTIFSKQDLIHSLIPVAKWFVKFITYLTQEILILINDPTNKEYTLVHGIFGAKMSRTLILSILNEIKKVTQIVAKFPETSYPILNESSTFLKLVLSESPVDFEKFETFLVDVNNKFIALCEQQPSQEREFSLLVKAEIPPEYAKVGDFLLQYANNAVISHANAAAVYFADTSGLKISNSEFFNPEIFHLLQPLEEGLIIDTDKLPIKNRTSKSFSKLLYDDVTCDKLSVSEISDGKLKRCSRCGSVTRAGNIISSDKTIVPTSIQTKRWPTMYTRLCICSGMLFEMDG
notes: Med16 (Sin4), S. cerevisiae, endogenous; source: endogenous, S. cerevisiae CB010 double-tagged strain; within the purified native holoenzyme
